Assay results: publication doi:10.1101/854158 (bioRxiv, 2019)

Key:
Assay in all cases: cryo-EM structure
FANCC = molecular target: T1, FANCC (human, UniProt Q00597 1-558)
T1 sequence: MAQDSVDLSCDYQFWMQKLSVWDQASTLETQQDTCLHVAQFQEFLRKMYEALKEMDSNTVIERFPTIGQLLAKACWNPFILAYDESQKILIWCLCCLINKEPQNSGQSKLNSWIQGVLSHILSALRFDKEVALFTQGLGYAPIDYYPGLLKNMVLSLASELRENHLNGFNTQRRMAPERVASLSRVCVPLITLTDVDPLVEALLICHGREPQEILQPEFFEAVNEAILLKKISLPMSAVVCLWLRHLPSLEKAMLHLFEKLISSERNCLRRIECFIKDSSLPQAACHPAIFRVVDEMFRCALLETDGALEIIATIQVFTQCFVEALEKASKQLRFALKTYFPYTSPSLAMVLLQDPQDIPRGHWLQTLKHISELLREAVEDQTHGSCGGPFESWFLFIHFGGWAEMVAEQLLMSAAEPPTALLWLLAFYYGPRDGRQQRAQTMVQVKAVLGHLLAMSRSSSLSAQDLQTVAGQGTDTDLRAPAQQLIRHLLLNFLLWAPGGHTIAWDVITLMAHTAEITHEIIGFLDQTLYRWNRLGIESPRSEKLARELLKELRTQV

FANCE = molecular target: T2, FANCE (human, UniProt Q9HB96 1-536)
T2 sequence: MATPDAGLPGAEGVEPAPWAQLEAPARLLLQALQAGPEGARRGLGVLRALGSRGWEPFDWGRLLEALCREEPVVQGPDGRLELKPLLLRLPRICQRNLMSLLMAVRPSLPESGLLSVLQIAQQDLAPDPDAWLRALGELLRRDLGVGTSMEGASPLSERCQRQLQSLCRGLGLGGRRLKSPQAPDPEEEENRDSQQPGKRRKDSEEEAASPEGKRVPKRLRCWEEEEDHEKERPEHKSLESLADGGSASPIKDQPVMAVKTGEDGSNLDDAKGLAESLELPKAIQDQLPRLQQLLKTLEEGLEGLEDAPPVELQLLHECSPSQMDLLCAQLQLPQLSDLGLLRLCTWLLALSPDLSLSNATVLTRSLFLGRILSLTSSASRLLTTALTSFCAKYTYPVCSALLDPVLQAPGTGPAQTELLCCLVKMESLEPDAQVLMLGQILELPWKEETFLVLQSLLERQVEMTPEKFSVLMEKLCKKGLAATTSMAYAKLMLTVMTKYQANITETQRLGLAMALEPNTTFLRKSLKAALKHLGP

FANCI = molecular target: T3, FANCI (human, UniProt Q9NVI1 1-1328)
T3 sequence: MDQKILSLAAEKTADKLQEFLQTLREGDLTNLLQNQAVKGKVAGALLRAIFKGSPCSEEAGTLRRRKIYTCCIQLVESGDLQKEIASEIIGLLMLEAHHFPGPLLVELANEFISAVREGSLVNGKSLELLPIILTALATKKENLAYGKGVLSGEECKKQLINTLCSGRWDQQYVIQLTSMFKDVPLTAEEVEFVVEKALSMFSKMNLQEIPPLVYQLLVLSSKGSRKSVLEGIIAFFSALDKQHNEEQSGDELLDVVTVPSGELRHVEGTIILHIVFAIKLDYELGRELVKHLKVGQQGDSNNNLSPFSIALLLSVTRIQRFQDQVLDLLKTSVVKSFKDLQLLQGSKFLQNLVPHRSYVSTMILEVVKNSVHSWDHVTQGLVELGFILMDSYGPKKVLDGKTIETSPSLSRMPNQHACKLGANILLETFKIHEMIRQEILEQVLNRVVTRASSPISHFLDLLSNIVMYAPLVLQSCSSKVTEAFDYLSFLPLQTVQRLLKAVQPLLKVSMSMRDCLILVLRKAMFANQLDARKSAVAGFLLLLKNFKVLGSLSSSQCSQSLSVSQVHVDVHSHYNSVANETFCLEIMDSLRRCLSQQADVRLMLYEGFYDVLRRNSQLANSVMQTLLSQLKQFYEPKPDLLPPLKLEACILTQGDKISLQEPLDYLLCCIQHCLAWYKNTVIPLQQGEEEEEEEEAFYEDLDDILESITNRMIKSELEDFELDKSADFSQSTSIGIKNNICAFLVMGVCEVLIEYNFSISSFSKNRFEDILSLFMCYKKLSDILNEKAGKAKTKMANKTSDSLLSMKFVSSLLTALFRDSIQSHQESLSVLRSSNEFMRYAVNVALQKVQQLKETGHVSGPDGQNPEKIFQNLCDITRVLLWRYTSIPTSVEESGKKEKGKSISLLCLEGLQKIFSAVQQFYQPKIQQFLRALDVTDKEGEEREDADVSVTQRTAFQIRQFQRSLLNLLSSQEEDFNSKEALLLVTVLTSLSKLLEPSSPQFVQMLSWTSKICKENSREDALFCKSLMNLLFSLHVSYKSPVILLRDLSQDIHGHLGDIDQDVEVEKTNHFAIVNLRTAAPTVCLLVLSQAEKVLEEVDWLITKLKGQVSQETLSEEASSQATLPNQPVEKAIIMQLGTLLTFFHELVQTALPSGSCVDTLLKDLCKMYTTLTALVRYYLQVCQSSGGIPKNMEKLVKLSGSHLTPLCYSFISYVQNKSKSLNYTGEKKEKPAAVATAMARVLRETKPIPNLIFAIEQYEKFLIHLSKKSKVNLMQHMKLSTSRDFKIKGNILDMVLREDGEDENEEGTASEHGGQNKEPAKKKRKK

Measured: binding result

B1: FANCL (enzyme)
chain: MAVTEASLLRQCPLLLPQNRSKTVYEGFISAQGRDFHLRIVLPEDLQLKNARLLCSWQLRTILSGYHRIVQQRMQHSPDLMSFMMELKMLLEVALKNRQELYALPPPPQFYSSLIEEIGTLGWDKLVYADTCFSTIKLKAEDASGREHLITLKLKAKYPAESPDYFVDFPVPFCASWTPQSSLISIYSQFLAAIESLKAFWDVMDEIDEKTWVLEPEKPPRSATARRIALGNNVSINIEVDPRHPTMLPECFFLGADHVVKPLGIKLSRNIHLWDPENSVLQNLKDVLEIDFPARAILEKSDFTMDCGICYAYQLDGTIPDQVCDNSQCGQPFHQICLYEWLRGLLTSRQSFNIIFGECPYCSKPITLKMSGRKH
binds: all assays above
